The results in this text go back to PMC4627693 (Chemistry & biology, 2014).

Where no end group is shown, it is not given here. The star is where a group is joined. Biotin = O=C1N[C@H]2[C@H](CS[C@H]2CCCCC(=O)*)N1; code Z = ethylene glycol unit

For the experiment, the target named is c-Src tyrosine kinase (recombinant) (UniProt P00523 1-533). Kind of experiment: cross-linking.

As a reminder, the EC50 is the concentration that produces a half-maximal response. As to {Biotin-code Z-code Z}-ICGEFRRR [Cys-Srctide (Biotin-ZZICGEFRRR)], the EC50 came out at 63 µM.
